{
  "source": "patent US7628975B2",
  "about": "“Compositions and methods for detecting and quantifying COX-2 activity and 2-arachidonylgycerol metabolites” (Vanderbilt University, priority 2000, dated 2009)",
  "key": {"[1]": {"tested_on": "RAW264.7 cells", "test": "Exogenous 2-AG metabolism to PGD2-G by RAW264.7 cells (LC/MS)", "assay_type": "cell-based, murine", "conditions": "inhibitor 3 μM, activated RAW264.7 cells, 2-AG 20 μM", "quoted_text": "Briefly, macrophages (30-50% confluence) are activated with IFN-γ (10 units/mL) and LPS (1 μg/mL) in serum-free DMEM for 7 hr at 37° C. prior to treatment. Activated RAW264.7 cell media are aspirated and replaced with fresh serum-free DMEM or PBS. […] After 30 min, medium or PBS is removed and extracted two times with an equal volume of CHCl3:MeOH (2:1). The solvent is evaporated and the residue is dissolved in 1 mL H2O:MeCN (95:5) and applied to a water-charged C18 solid phase extraction column (Varian). Following a water wash, glyceryl prostaglandins are eluted with H2O:MeCN (3:7). The eluant is lyophilized, dissolved in H2O:MeCN (1:1), and subjected to LC/MS analysis. […] Activated RAW264.7 cell medium is aspirated and replaced with fresh serum-free DMEM. […] After 20 min, medium is removed and the cells are treated with 8.0 ng pentadeuterated glyceryl prostaglandin standard. Medium is collected and extracted two times with an equal volume of CHCl3:MeOH (2:1). The solvent is evaporated and the residue is redissolved in H2O:MeCN (1:1), filtered (0.22 μm nylon), and subjected to LC/MS analysis."}, "[2]": {"target": "T1, COX-2 (Homo sapiens, UniProt P35354)", "T1 sequence (P35354 18-604)": "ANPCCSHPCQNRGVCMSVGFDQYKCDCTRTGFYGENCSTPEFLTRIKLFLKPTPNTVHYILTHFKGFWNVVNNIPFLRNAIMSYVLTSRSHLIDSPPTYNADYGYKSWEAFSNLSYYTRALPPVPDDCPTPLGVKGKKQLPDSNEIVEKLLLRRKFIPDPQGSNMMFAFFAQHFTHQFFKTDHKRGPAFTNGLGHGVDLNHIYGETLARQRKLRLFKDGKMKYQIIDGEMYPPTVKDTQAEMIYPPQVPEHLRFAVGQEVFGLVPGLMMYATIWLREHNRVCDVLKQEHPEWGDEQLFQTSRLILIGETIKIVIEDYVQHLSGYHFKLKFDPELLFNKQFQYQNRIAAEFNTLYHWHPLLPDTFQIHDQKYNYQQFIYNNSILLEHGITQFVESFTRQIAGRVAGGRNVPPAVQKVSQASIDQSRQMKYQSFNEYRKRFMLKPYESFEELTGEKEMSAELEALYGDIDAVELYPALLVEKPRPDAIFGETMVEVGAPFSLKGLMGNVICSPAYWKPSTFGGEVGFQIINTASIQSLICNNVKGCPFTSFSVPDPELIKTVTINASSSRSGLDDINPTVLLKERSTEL", "test": "HPLC/UV quantification of products in base-treated COX-2/2-AG incubation mixtures", "assay_type": "biochemical", "conditions": "COX-2 oxygenation of 2-AG, n=5", "protocol": "Estimates of relative amounts of the individual PG-Gs can be made by reversed-phase HPLC with UV detection. […] Quantification of PGE2-G and HETE-Gs is accomplished by HPLC/UV analysis of base-treated COX-2/2-AG incubation mixtures using 5-HETE as an internal standard. PGE2-G is the major product of oxygenation (PGE2-G/HETE-G=4.0±0.1, n=5) and 11-HETE-G is more abundant than 15-HETE-G (11-HETE-G/15-HETE-G=3.4±0.1, n=5). HETE-G regiochemistry is confirmed by mass spectrometry of saponified, HPLC-purified HETE products."}, "[3]": {"conditions": "buffer", "quoted_text": "Then, a metabolite of the COX-2 selective substrate, such as PGH2-G, is measured."}, "[4]": {"substrate": "CCCCC/C=C\\C/C=C\\C/C=C\\C/C=C\\CCCC(=O)O", "test": "Steady-state kinetics of COX-2 mediated oxygenation (O2 uptake), murine enzyme", "assay_type": "biochemical", "conditions": "other: mCOX-2, substrate oxygenation", "protocol": "(§1) The ability of COX-1 and COX-2 to metabolize different substrates, such as 2-AG and arachidonic acid (AA) can be determined, for example, by measuring relative oxygen uptake. FIG. 9 is a representative oxygen uptake curve for 100 μM 2-AG or AA treated with 150 nM purified COX-2 or 150 nM ovine COX-1. The horizontal bar represents 20-seconds. The vertical bar represents 10 μM O2 uptake."}, "[5]": {"substrate": "CCCCC/C=C\\C/C=C\\C/C=C\\C/C=C\\CCCCOC(CO)CO", "test": "Steady-state kinetics of COX-2 mediated oxygenation (O2 uptake), murine enzyme", "assay_type": "biochemical", "conditions": "other: mCOX-2, substrate oxygenation", "protocol": "as §1"}, "[6]": {"substrate": "CCCCC/C=C\\C/C=C\\C/C=C\\C/C=C\\CCCC(=O)O", "test": "Steady-state kinetics of COX-2 mediated oxygenation (O2 uptake), human enzyme", "assay_type": "biochemical", "conditions": "other: hCOX-2, substrate oxygenation", "protocol": "as §1"}, "[7]": {"substrate": "CCCCC/C=C\\C/C=C\\C/C=C\\C/C=C\\CCCCOC(CO)CO", "test": "Steady-state kinetics of COX-2 mediated oxygenation (O2 uptake), human enzyme", "assay_type": "biochemical", "conditions": "other: hCOX-2, substrate oxygenation", "protocol": "as §1"}},
  "data": [
    {"molecule": "COc1ccc2c(c1)c(CC(=O)NCCc1ccccc1)c(C)n2C(=O)c1ccc(Cl)cc1", "note": "[indomethacin phenethylamide, 2-[1-(4-chlorobenzoyl)-5-methoxy-2-methyl-1H-indol-3-yl]-N-phenethylacetamide]", "values": [
      {"measurement": "Effect on PGD2-G biosynthesis", "setting": "[1]", "result": "inhibited"}
    ]},
    {"molecule": "CCCCC[C@H](O)/C=C/[C@H]1[C@H](O)CC(=O)[C@@H]1C/C=C\\CCCC(=O)OCC(O)CO", "note": "(some centres unmarked) [PGE2-G, prostaglandin E2-glycerol ester]", "values": [
      {"measurement": "PGE2-G/HETE-G product ratio", "setting": "[2]", "result": "4.0±0.1"}
    ]},
    {"molecule": "CCCCC[C@H](O)/C=C/[C@@H]1[C@@H](C/C=C\\CCCC(=O)OC(CO)CO)[C@@H]2C[C@H]1OO2", "note": "[PGH2-G, prostaglandin H2-glycerol ester]", "values": [
      {"measurement": "half-life in aqueous solution", "setting": "[3]", "result": "approximately 20 seconds"}
    ]},
    {"molecule": "COc1ccc2c(c1)c(CC(=O)O)c(C)n2C(=O)c1ccc(Cl)cc1", "note": "[indomethacin]", "values": [
      {"measurement": "Effect on PGD2-G biosynthesis", "setting": "[1]", "result": "inhibited"}
    ]},
    {"molecule": "CCCCCC=CC=CC(O)CC=CCC=CCCCC(=O)OC(CO)CO", "note": "(centres unmarked) [11-HETE-G, 11-hydroxy-eicosatetranoic glycerol ester]", "values": [
      {"measurement": "11-HETE-G/15-HETE-G product ratio", "setting": "[2]", "result": "3.4±0.1"}
    ]},
    {"molecule": "mCOX-2 (Mus musculus) (protein) ANPCCSNPCQNRGECMSTGFDQYKCDCTRTGFYGENCTTPEFLTRIKLLLKPTPNTVHYILTHFKGVWNIVNNIPFLRSLIMKYVLTSRSYLIDSPPTYNVHYGYKSWEAFSNLSYYTRALPPVADDCPTPMGVKGNKELPDSKEVLEKVLLRREFIPDPQGSNMMFAFFAQHFTHQFFKTDHKRGPGFTRGLGHGVDLNHIYGETLDRQHKLRLFKDGKLKYQVIGGEVYPPTVKDTQVEMIYPPHIPENLQFAVGQEVFGLVPGLMMYATIWLREHNRVCDILKQEHPEWGDEQLFQTSRLILIGETIKIVIEDYVQHLSGYHFKLKFDPELLFNQQFQYQNRIASEFNTLYHWHPLLPDTFNIEDQEYSFKQFLYNNSILLEHGLTQFVESFTRQIAGRVAGGRNVPIAVQAVAKASIDQSREMKYQSLNEYRKRFSLKPYTSFEELTGEKEMAAELKALYSDIDVMELYPALLVEKPRPDAIFGETMVELGAPFSLKGLMGNPICSPQYWKPSTFGGEVGFKIINTASIQSLICNNVKGCPFTSFNVQDPQPTKTATINASASHSRLDDINPTVLIKRRSTEL", "values": [
      {"measurement": "Km", "setting": "[4]", "result": "8.2 ± 1.6", "unit": "µM"},
      {"measurement": "kcat", "setting": "[4]", "result": "20.5 ± 1.6", "unit": "s⁻¹"},
      {"measurement": "kcat/Km", "setting": "[4]", "result": "2.5e+06", "unit": "M⁻¹ s⁻¹"},
      {"measurement": "Km", "setting": "[5]", "result": "4.7 ± 0.8", "unit": "µM"},
      {"measurement": "kcat", "setting": "[5]", "result": "11.1 ± 0.7", "unit": "s⁻¹"},
      {"measurement": "kcat/Km", "setting": "[5]", "result": "2.3e+06", "unit": "M⁻¹ s⁻¹"}
    ]},
    {"molecule": "hCOX-2 (Homo sapiens) (protein) ANPCCSHPCQNRGVCMSVGFDQYKCDCTRTGFYGENCSTPEFLTRIKLFLKPTPNTVHYILTHFKGFWNVVNNIPFLRNAIMSYVLTSRSHLIDSPPTYNADYGYKSWEAFSNLSYYTRALPPVPDDCPTPLGVKGKKQLPDSNEIVEKLLLRRKFIPDPQGSNMMFAFFAQHFTHQFFKTDHKRGPAFTNGLGHGVDLNHIYGETLARQRKLRLFKDGKMKYQIIDGEMYPPTVKDTQAEMIYPPQVPEHLRFAVGQEVFGLVPGLMMYATIWLREHNRVCDVLKQEHPEWGDEQLFQTSRLILIGETIKIVIEDYVQHLSGYHFKLKFDPELLFNKQFQYQNRIAAEFNTLYHWHPLLPDTFQIHDQKYNYQQFIYNNSILLEHGITQFVESFTRQIAGRVAGGRNVPPAVQKVSQASIDQSRQMKYQSFNEYRKRFMLKPYESFEELTGEKEMSAELEALYGDIDAVELYPALLVEKPRPDAIFGETMVEVGAPFSLKGLMGNVICSPAYWKPSTFGGEVGFQIINTASIQSLICNNVKGCPFTSFSVPDPELIKTVTINASSSRSGLDDINPTVLLKERSTEL", "values": [
      {"measurement": "Km", "setting": "[6]", "result": "6.1 ± 0.6", "unit": "µM"},
      {"measurement": "kcat", "setting": "[6]", "result": "14.7 ± 0.5", "unit": "s⁻¹"},
      {"measurement": "kcat/Km", "setting": "[6]", "result": "2.4e+06", "unit": "M⁻¹ s⁻¹"},
      {"measurement": "Km", "setting": "[7]", "result": "4.4 ± 0.9", "unit": "µM"},
      {"measurement": "kcat", "setting": "[7]", "result": "17.4 ± 1.1", "unit": "s⁻¹"},
      {"measurement": "kcat/Km", "setting": "[7]", "result": "4e+06", "unit": "M⁻¹ s⁻¹"}
    ]}
  ]
}
